Our source for the Kd and Ki values is patent US20030082683A1.

Assay [1] concerns the target rSK2 small conductance, calcium-activated potassium channel (rat), P70604.
Assay [2] has as its target T1, hIK1 intermediate conductance, calcium-activated potassium channel (human), O15554.
T1 chain: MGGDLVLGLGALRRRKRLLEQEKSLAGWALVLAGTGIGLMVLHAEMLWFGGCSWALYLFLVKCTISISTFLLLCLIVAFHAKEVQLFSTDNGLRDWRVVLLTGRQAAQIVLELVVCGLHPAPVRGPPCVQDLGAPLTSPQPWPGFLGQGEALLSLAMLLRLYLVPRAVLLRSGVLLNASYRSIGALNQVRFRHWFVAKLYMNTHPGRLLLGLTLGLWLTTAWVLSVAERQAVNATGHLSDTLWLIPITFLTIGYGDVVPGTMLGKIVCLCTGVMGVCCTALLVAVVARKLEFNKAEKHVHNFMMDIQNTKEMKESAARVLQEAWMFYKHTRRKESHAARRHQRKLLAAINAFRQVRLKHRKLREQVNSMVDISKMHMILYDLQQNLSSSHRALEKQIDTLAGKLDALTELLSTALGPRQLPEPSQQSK
The assay is described as follows: block of macroscopic hIK1 current, patch clamp on macropatches from Xenopus oocytes. In general terms: Patch clamp records ionic current or voltage across a cell membrane.

rSK2 small conductance, calcium-activated potassium channel (rat), P70604, sequence (P70604 whole entry): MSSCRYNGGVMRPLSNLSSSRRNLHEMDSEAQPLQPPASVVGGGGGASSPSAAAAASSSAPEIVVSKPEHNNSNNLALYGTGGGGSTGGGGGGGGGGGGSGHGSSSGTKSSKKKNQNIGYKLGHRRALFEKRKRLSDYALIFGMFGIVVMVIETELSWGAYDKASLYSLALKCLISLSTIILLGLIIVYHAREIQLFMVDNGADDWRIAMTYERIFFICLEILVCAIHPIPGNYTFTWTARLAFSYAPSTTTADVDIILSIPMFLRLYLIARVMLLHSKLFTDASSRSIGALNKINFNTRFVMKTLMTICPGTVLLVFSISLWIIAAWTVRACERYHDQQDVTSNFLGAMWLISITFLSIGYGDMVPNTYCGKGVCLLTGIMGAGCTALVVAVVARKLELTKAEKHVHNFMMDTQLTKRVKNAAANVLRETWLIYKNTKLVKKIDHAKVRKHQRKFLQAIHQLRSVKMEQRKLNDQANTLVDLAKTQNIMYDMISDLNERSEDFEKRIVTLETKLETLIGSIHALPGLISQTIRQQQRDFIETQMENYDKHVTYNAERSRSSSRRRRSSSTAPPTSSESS

For the molecule CNCKAPETALCARRCQQH (modifications not checked) [apamin, P01500 28-45], in assay [1], the dissociation constant Kd was found to be 0.063 nM. For QFTNVSCTTSKECWSVCQRLHNTSRGKCMNKKCRCYS (modifications not checked) [charybdotoxin, P13487 23-59], in assay [2], the Ki worked out at 2.5 nM.

One may read the Kd as a measure of binding affinity in units of concentration. As a reminder, the Ki is the dissociation constant of the complex between target and ligand, obtained from inhibition or displacement.
